Data reported in the DeepSol protein solubility set.

Experiment: soluble on expression in E. coli; label from the status in PepcDB or PDB records

LGSVKPATCEKPKFLEYKTCVGDLAVVIAKALDEFKEFCIVNAANEHMSHGGGVAKAIADFCGPDFVEYCADYVKKHGPQQKLVTPSFVKGIQCVNNVVGPRHGDSNLREKLVAAYKSVLVGGVVNYVVPVLSSGIFGVDFKISIDAMREAFKGCAIRVLLFSLSQEHIDYFDATCK
soluble on expression in E. coli: soluble

MGSDKIHHHHHHMIKRLKIKNFKSYRDSEFEFEKVSIVVGPNGSGKTNLVDAFSFLKQLIRPLSYPPYPFIRWGDYKNVVFMQDENLDISFEIDGEYKGKDYHYEISLNKLQIKKEIINFDSYSMERRGNVIRYENKEMTIPDNLSVFNLFFAQPFIIAYNLNFTLPPELLNFMTNFLNDVGVFRIVPQIAVSPVHFTFPEALDENGRGLVKVISNNLSRINETKQVYDFLVENNISLRPVFTEDGNIRLHFIEKSENNKELILLPASVPDGFIKMLTIIIAVYLLKMSTIIIDEIENSLHLKYIERLVDIMRYSDSQFIATTHSPLIIDFMDPFRNNNS
soluble on expression in E. coli: not soluble

MGSDKIHHHHHHMMKQIIAMAGGGFSMEPDNLSLDQYILNQSKREQHRICFLPTASGDSQNYIQRFYHAFQTLDCVPSHLSLFKPPSSDLVSFVMEMDVIYVGGGNTRNLLVLWKEWGLDHILREAWKNGVVVAGISAGAICWFEEGVTDSAGPLTSLKSLGFLQGSFCPHYDGEKDRRPAYHQLISNKFLCSGYAADDGAALHFINDQLFQTVSSRSGAKAYRVMMAEHEIAEIPLPVKYVRVKLAEYYLYSSFFQIDFMIR
soluble on expression in E. coli: not soluble

MNMSQNLDFIHSAQRTIGLERDAVDSLLARIGDDFVKACELLLAGKGRVVVVGMGKSGHVGKKIAATLASTGTPSFFVHPAEASHGDMGMITKDDVVLALSNSGSTAEIVTLLPLIKRLGITLISMTGNPESPLAKAAEVNLDASVGQEACPLNLAPTSSTTVTLVLGDALAIALLEARGFTAEDFAFSHPGGALGRRLLLKVEDVMHVGEGLPQVLLGTSLTGALMEMTRKGLGMTVVLDEHGKLAGIFTDGDLRRALDRGIDVRQVTIDQVMTVHGKTVRAEILAAEALKIMEDNKIGALVVVDADDRPVGALNMHDLLRAGVM
soluble on expression in E. coli: not soluble

GPGSMFVSDNDDYLPEPQAPGDHHMHEERLRRLEENFALLLNQRSVGNASGPKESTPKARVTAVAADVQAADERSLKLTYELRELVPHLSPGFDCCSADALLLLSAIRNGSHGRGCESWEDRLAVVKAEKRSLHHQLEKKAQECEELKNAVAEMKQRLKAERQEALSSVNVLSQRREQVRKQLLLEESRSQKLQVRNGQLESELERLKDMLHSCMRR
soluble on expression in E. coli: not soluble

MSLLTSNLGYPRIGENREWKKALESFWANDTTEEQLLATMKELRLNHLRVQQEQEVDLIPVGDFTLYDHVLDMAVMFGIIPKRFLQQGDTPTLSTYFAMARGSKNAQACEMTKWYNTNYHYIVPELHDAAPRLTKNAPLEAYLEAKNELGIDGKPVILGPYSFVKLAKGYEEDKLQETIQSLLPLYIQVIQELVDAGARSIQVDEPSLVTSISAREMALVTRIYEQINEAIADAPLFLQTYFDAVTFYEEVVSLPVKGIGLDFVHGGAKNLEALRTFGFPEDKVLAAGIIDGRNIWISNLRERHELVHQLEQHVAKDRLVLQPSCSLLHVPVTTKREEKLDPTLLGVLAFANEKLTELHTLKQLAAGNEAEVKEALEANDDALAALEKSGWRSGAATSHNLENKKRPQSFNERRPLQEEKWQLPLLPTTTIGSFPQTKDVRRTRSLWRKGELSTVEYERTMKSYIEKWINIQEELGLDVLVHGEFERNDMVEFFGEKLDGFAFTANGWVQSYGSRCVKPPIIYGNVSFTEPMTVAETVYAQSLTDKPVKGMLTGPVTILNWSFVRDDLPLTVIAHQIAEALTHEVTALEEAGIEMIQIDEPAIREGLPLKAEDQQEYLDWAVSAFRASCAHVKATTQIHTHMCYSEFHEMIEAIDDLDADVISIETSRSHGEMISAFEKTTYEKGIGLGVYDIHSPRVPSEEEMLNVIRRALTVLPASLFWVNPDCGLKTRAEKETVAALKNMVAAARAAREELKTKAEGHHHHHH
soluble on expression in E. coli: soluble

MSLSSPRIIATYHLASDADLVAERAKGLAIEQSVECPLAAVGDPVILDTIVGRVEDIAELTPGRYAVRIGLAAATAPAEPGQLINMLFGNSSMQQDVTLVDVELPPSYLAAFGGPRLGLAGLRALTGTQDRALTASALKPQGLSPAALARIAGQLARGGVDVIKDDHGIADQAYSPFAARVEAVGRAVQEANVARDGHSLYAPNLSGTLDDMRRQLDLAREQGIAAVMVAPMIVGLANFHAVVKAAAGMVVIAHPALSGVTRIAPPLLLGKLFRLFGADATIFPNAGGRFGFSTETCLQLARAGRDPWGALEPCMPVPAGGLTADRVAELLQFYGHDVMLLIGGGLLSARERLTEEAARFVNEVAAHGKAEGHHHHHH
soluble on expression in E. coli: soluble

MGVISAYAVVHERAAIIDPGTAKGAEIILDEIDRSWNVEYICPTHIHIDHGGGAARLAKALDAKIIVHPRGVKHVVNPEKLWEASKAVLGEVAEIYGKPESIDESKVIAVEDEQEFDLGGERLKVFHAPGHAPHMLVYYLTNSKVLFPADAVGMCFGGVVFPLTPPPFDADAALKTLKRLKGLKVDYVAFTHYGVVEGDWPIAKLEHHHHHH
soluble on expression in E. coli: not soluble

MTDQPDLFGLAPDAPRPIIPANLPEDWQEALLPEFSAPYFHELTDFLRQERKEYTIYPPAPDVFNALRYTPLGEVKVLILGQDPYHGPNQAHGLSFSVRPGVRVPPSLRNIYKELTEDIPGFVAPKHGYLRSWAEQGVLLLNAVLTVRAGQANSHQGKGWEHFTDAVIKAVNAKEERVVFILWGSYARKKKKLITGKNHVVIESGHPSPLSEQYFFGTRPFSKTNEALEKAGRGPVEWQLPATVTEE
soluble on expression in E. coli: soluble

MPNYPFPILWLPPKPLGHLLRNMDFRNLIIFSLTSKPAKWLTELLNMDAPMISVHVDHQINIIVSSVKSVTYHASNGSLRESRGKIDRQINFPGSLKQFVEHLLHIFKEHKIDDLEIMCNSVYQYKPDIQALKGIKMRTLKLRYQESILKMFGTSADRIEFSTIKSAELENSKDILIQNFDYLKFDFEGSLTADNLIGINGKVVNIWAADIEMKDVNIFLKHWLKGSNPRLEKLILKTYRLDTDGNSVEDSVADLFRDLDCESIAESQFEILRDDESIAKISILEHGYWYNKIHCYFSLNEAMNLYTTYFWDIVHLQEKILH
soluble on expression in E. coli: not soluble

ATRDFLQRAEAAYKTDGGAAGLGQKAFVKMMQEVCELPSMVAYSLFKRLTGCEAGEEEGAAVPRDTFIKFWTGRGLVTAPPPKRAFDSLRPDGQDYLTFADFWPMMECVLRYHPGLEFLAETQEFQRKYAETVIHRIFYSLNKCGSGRLTFREFRSGELMDALYALDRENDINKILKFFSYEHFYVIYCKFWELDQDHDFQLDKTDLAHYSNCALSYVIVDRIFEEAPRKFKAGTPPGKMCYEDFVWFILSEEDKTTDTALTYWFRCVDLDGDGVIRPREMLYFYEEQLRRLEGWNQEPVQFEDLLCQLHDMLSPAKEGAFTLRDLKRTKPQSGLFFSSLFSLHKFVGFENRDPFAQRAEAAEFTGLSDWDKFAKIEYFRLASEDD
soluble on expression in E. coli: soluble

MGSDKIHHHHHHMKVLIITNLFPLNNNSNSGIFVVQRLRHYKSFNVNLDTISLGHHNSKIASLLEKLLRGHSNKKTLEEVENVKFYPVSIEINLLRLIKYGLLRNYFTVLCKEYKKMIEEAFNLNEYDLIHAHGMYSVPAGLTAKILAEKYRKPFIVTLHGSDVNLFMPHRKEIYVSILESASATIFVSKALLEKAKSLGFSGKNAVVIPNGYDETIFKPMDKEAVRKELGIHREGYKYVGFVGNLIPIKRADKLGEIFHLIAKEIPETFFIIVGDGPLRKKIEKETKGLNIIFTGRLPQKDVAKYMNAMDVMVLPSRNEGWPCVILEAQACGTCVIGSSNRGIPEAIGFPEYVVEEGDQFEERFARRVVEVLNEGYDVNRILERAKGFTWRNIVEKEIDVHKRVVLKS
soluble on expression in E. coli: not soluble

MEALDSSSFTFPQDYEFSYVVNHNCSADGNTYCVQPVKPTTVSRFGTRYIKFDIKALPVGSPIPCKSPKEWRVIKG
soluble on expression in E. coli: not soluble

MAHHHHHHMEAFAITPLAEDDTTFVKDAQQFLAVIADMQREAEQRRCLLDDLRQKEAAAEMELEKCLAVREAVVARMAHTKAEGLELQSEYKALTTQQRAVEAEVLELRRQKSHWKKVLQEFQGSSSSSHLLGSGNTDGATVKSASSLDRALHAWSQLPHGSMFLKELKKTLTEFVAELAVNAGSNTNDNSNTTHNGTSTEYTTAFLDPSSVFPHLPPLSKVEEAIILLIPFSA
soluble on expression in E. coli: not soluble

MGSDKIHHHHHHVKEIRERGGTVKQQLITTHDGGRLALYSYGTVDAPGERRVVVIGGAFLTALIYRPFSEALSKGLGDGWAVDVYDRRGRGESTPQPADYSMATEIADVRTIMDATGARNLFGHSLGGSVALNAVQEFVGTAHQPDRLAVYDAAVNIDGSVDTSWLDSFERSVNEGNVPHALAKLKKGMQPGTAMARIPEPVLAGLMALVSRTKVNRLFKEVMPSGVGELKAVFDEADHVRDFSVLPPNTRFMVGSKSPRYYKVTAELLHRAVPGSVLQVSPKCVHASIPAAVKELVADISAYYKG
soluble on expression in E. coli: not soluble

MIFNIQRYSTHDGPGIRTVVFLKGCSLGCRWCQNPESRARSEDLLYDSRLCLAGCELCQQAAPAVITRTLDGLIIHRQNVNDSHIAALRDCCPTTALTVCGEEKSVEEIMATVLRDKPFYDRSGGGITLSGGEPFMNPTLAQALFEASHQAGIHTAVETCLHVPWKYIEPSLPFVDLFLADLKHVDEAVFQQWTDGSARRVLDNLQRLAQAGKKMIIRVPLIQGFNASEADIAAITDFAADRLQVSEIHYLPYHTLGMNKYQLLSQPYTAPDKPLDAPELLVFAQDYAQSKGLTAILRG
soluble on expression in E. coli: not soluble

MSSARRCLFGRPTPEQRSRTRIWLEDAVKRMRQEESQKWGFDFELETPLPSSAGFVYEVIPENCVPEFYRTKVLTVRTTCSSLDISSTTLTPLSSPSTSDKEEPSLMDPNSSFEDEEEPKKWQFREPPTPRKTPTKRQQKMTDFMAVSRKKNSLSPNKLSPVNVIFTPKSRRPTIRTRSSCSPY
soluble on expression in E. coli: not soluble

MAESSDKLYRVEYAKSGRASCKKCSESIPKDSLRMAIMVQSPMFDGKVPHWYHFSCFWKVGHSIRHPDVEVDGFSELRWDDQQKVKKTAEAGG
soluble on expression in E. coli: soluble

MAYRICLIEGDGIGHEVIPAARRVLEATGLPLEFVEAEAGWETFERRGTSVPEETVEKILSCHATLFGAATSPTRKVPGFFGAIRYLRRRLDLYANVRPAKSRPVPGSRPGVDLVIVRENTEGLYVEQERRYLDVAIADAVISKKASERIGRAALRIAEGRPRKTLHIAHKANVLPLTQGLFLDTVKEVAKDFPLVNVQDIIVDNCAMQLVMRPERFDVIVTTNLLGDILSDLAAGLVGGLGLAPSGNIGDTTAVFEPVHGSAPDIAGKGIANPTAAILSAAMMLDYLGEKEAAKRVEKAVDLVLERGPRTPDLGGDATTEAFTEAVVEALKSL
soluble on expression in E. coli: soluble

KVKSTFNKYSKVSSSKGMTGAMVAEQLLRSQGIYDVSIQRVSGSLTDNYNPRNKTLNLSDSVYNSTSVAAIGVAAHETGHAIQHAYGYGPLSFRTALFP
soluble on expression in E. coli: not soluble

MIGGLFVYNHKGEVLISRIYRDDVTRNAVDAFRVNVIHARQQVRSPVTNMARTSFFHVKRGNVWICAVTRQNVNAAMVFEFLKRFADTMQSYFGKLNEENVKNNFVLIYELLDEILDFGYPQNTDPGVLKTFITQQGVRTATKEEQSQITSQVTGQIGWRREGIKYRRNELFLDVIEYVNLLMNQQGQVLSAHVAGKVAMKSYLSGMPECKFGINDKITIEGKSKPGSDDPNKASRAAVAIDDCQFHQCVKLTKFETEHAISFIPPDGEYELMRYRTTKDIQLPFRVIPLVREVSRNKMEVKVVVKSNFKPSLLAQKLEVRIPTPPNTSGVQLICMKGKAKYKAGENAIVWKIKRMAGMKESQISAEIDLLSTGNVEKKKWNRPPVSMNFEVPFAPSGLKVRYLKVFEPKLNYSDHDVIKWVRYIGRSGLYETRC
soluble on expression in E. coli: not soluble
